Experimental data: IntAct's records for PubMed 28514442

B1: WASH complex subunit 5 (Homo sapiens), Q12768 (parent)
chain: MLDFLAENNLCGQAILRIVSCGNAIIAELLRLSEFIPAVFRLKDRADQQKYGDIIFDFSYFKGPELWESKLDAKPELQDLDEEFRENNIEIVTRFYLAFQSVHKYIVDLNRYLDDLNEGVYIQQTLETVLLNEDGKQLLCEALYLYGVMLLVIDQKIEGEVRERMLVSYYRYSAARSSADSNMDDICKLLRSTGYSSQPGAKRPSNYPESYFQRVPINESFISMVIGRLRSDDIYNQVSAYPLPEHRSTALANQAAMLYVILYFEPSILHTHQAKMREIVDKYFPDNWVISIYMGITVNLVDAWEPYKAAKTALNNTLDLSNVREQASRYATVSERVHAQVQQFLKEGYLREEMVLDNIPKLLNCLRDCNVAIRWLMLHTADSACDPNNKRLRQIKDQILTDSRYNPRILFQLLLDTAQFEFILKEMFKQMLSEKQTKWEHYKKEGSERMTELADVFSGVKPLTRVEKNENLQAWFREISKQILSLNYDDSTAAGRKTVQLIQALEEVQEFHQLESNLQVCQFLADTRKFLHQMIRTINIKEEVLITMQIVGDLSFAWQLIDSFTSIMQESIRVNPSMVTKLRATFLKLASALDLPLLRINQANSPDLLSVSQYYSGELVSYVRKVLQIIPESMFTSLLKIIKLQTHDIIEVPTRLDKDKLRDYAQLGPRYEVAKLTHAISIFTEGILMMKTTLVGIIKVDPKQLLEDGIRKELVKRVAFALHRGLIFNPRAKPSELMPKLKELGATMDGFHRSFEYIQDYVNIYGLKIWQEEVSRIINYNVEQECNNFLRTKIQDWQSMYQSTHIPIPKFTPVDESVTFIGRLCREILRITDPKMTCHIDQLNTWYDMKTHQEVTSSRLFSEIQTTLGTFGLNGLDRLLCFMIVKELQNFLSMFQKIILRDRTVQDTLKTLMNAVSPLKSIVANSNKIYFSAIAKTQKIWTAYLEAIMKVGQMQILRQQIANELNYSCRFDSKHLAAALENLNKALLADIEAHYQDPSLPYPKEDNTLLYEITAYLEAAGIHNPLNKIYITTKRLPYFPIVNFLFLIAQLPKLQYNKNLGMVCRKPTDPVDWPPLVLGLLTLLKQFHSRYTEQFLALIGQFICSTVEQCTSQKIPEIPADVVGALLFLEDYVRYTKLPRRVAEAHVPNFIFDEFRTVL

Variants of: B1
Conditions: with pcna_human PCNA

How did the “effect of a mutation on the interaction” value turn out when N471D was run?
The value was “with no effect”.

Which “effect of a mutation on the interaction” value does the source give for V626F here?
Its value is “with no effect”.

With L619F as the variant, how does the “effect of a mutation on the interaction” value read?
The value was “with no effect”.
